We go through 2 substances from publication PMC4496704.

The target of assay [1] is Hsp-N (ATPase domain of mouse Hsp70; lacks the peptide-binding domain) (mouse). As to the kind of experiment: cross-linking; without sulfatide (with or without lactosylceramide); 0.1 μM protein in PBS, 0.1% glutaraldehyde 10 min 30 °C, SDS-PAGE and Western blot.
In assay [2] the target is Recombinant mouse Hsp70 (70-kDa heat shock protein), wild type (mouse) (UniProt Q61696). Described as above.

In the case of “Hsp-N (ATPase domain of mouse Hsp70; lacks the peptide-binding domain) (domain or fragment)”, the stoichiometry N in assay [1] turned out to be 2.

As to “Recombinant mouse Hsp70 (70-kDa heat shock protein), wild type (from UniProt Q61696 1-641) (natural protein)”, the stoichiometry N in assay [2] was 2.

The stoichiometry N is a count of units in the complex or per binding partner.
